# According to patent US20120014954A1 (ABRAXIS BIOSCIENCE, published 2012):
# B1: PD 21 (peptide)
# peptide: VTPLLKFRALSS
# notes: 12-mer from the Ph.D.-12 phage library; The peptide was cloned into pFUSE-hIgG1-Fc2 and expressed as the PD 21-Fc fusion; also called peptide 21; PD 21-Fc
# B2: PD 15 (peptide)
# peptide: YTRLHHWIPPQR
# notes: 12-mer from the Ph.D.-12 phage library; The peptide was cloned into pFUSE-hIgG1-Fc2 and expressed as the PD 15-Fc fusion; also called peptide 15; PD 15-Fc
# B3: ScFv 3-2 (scFv)
# scFv: EIVMTQSPGTLSLSPGDRATLSCRASQSVSGYLAWYQQKPGQAPRLLIYDASNRATGIPARFSGSGSGTDFTLTISSLQAEDVAVYYCQQYYSTLPTFGQGTKLEIKRSGGSTITSYNVYYTKLSSSGTQVQLVQSGGGVVQPGRPLKLSCAASGFTFSSYAMHWVRQAPGKGLEWVAVISYDGSNKYYADSVKGRFTISRDNSKNTLYLQMNSLRAEDTAVYYCARDLSWNDAFDIWGQGTMVTVSSAS
# B4: ScFv 2-1 (scFv)
# scFv: EVQLLESGGGLVQPGGSLRLSCAASGFTFSSYAMSWVRQAPGKGLEWVSMITPLGSTTAYADSVKGRFTISRDNSKNTLYLQMNSLRAEDTAVYYCAKRAGVFDYWGQGTLVTVSSGGGGSGGGGSGGGGSTDIQMTQSPSSLSASVGDRVTITCRASQSISSYLNWYQQKPGKAPKLLIYRASTLQSGVPSRFSGSGSGTDFTLTISSLQPEDFATYYCQQNDSFPTTFGQGTKVEIKR
# notes: It was purified from bacteria on a nickel column
# Target: T1, Secreted Protein, Acidic, Rich in Cysteines (SPARC) (UniProt P09486 18-303)
# T1 construct: also called osteonectin; SPARC protein
# T1 sequence (looked up): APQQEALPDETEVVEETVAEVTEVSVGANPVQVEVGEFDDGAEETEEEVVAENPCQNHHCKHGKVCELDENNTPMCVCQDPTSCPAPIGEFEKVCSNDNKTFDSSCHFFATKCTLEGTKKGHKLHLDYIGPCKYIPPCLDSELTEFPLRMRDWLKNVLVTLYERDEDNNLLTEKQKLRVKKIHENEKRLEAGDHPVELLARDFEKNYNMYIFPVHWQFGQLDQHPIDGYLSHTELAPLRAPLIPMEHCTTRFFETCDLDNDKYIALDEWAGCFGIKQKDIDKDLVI
# Test: phage display panning on immobilised SPARC; times isolated among 134 sequenced clones
# Source text: (§1) Accordingly, a commercial peptide phage display library (12-mer peptides in M13) was screened for peptides which bind to SPARC. The target, SPARC is an acidic glycoprotein with a PI of 4.6. By immobilization on 96-wells plates with pH 9.6 coating buffer, Ph.D.-12 peptide library was screened four rounds to select peptide binders using phage display technology. Specifically, bound phages were eluted with an acidic eluting solution in the 1st round of screening. Then the screening stringency was enhanced gradually by decreasing the target protein concentration and increasing the percentage of Tween-20 in washing buffer. At the same time, competitive elution with excess target was adopted to improve the screening specificity. Finally, after four rounds of screening, ssDNA of selected clones were subjected to DNA sequencing. At the same time, the binding of the positive phages to the target protein was validated using phage ELISA.
row,Molecule,Count
1,VPATRVSPTPYA (also called clone 133),1
2,VGNMPFVHPHQW (also called clone 192),1
3,QILGYPTNLGPF (also called clone 135),1
4,B1,2
5,TQWHDDSTFYWL (also called clone 186),2
6,KAYLDSIPITPR (also called clone 60),1
7,IDKPLHVVLALG (also called clone 184),2
8,LSTHKLFHSHSQ (also called clone 180),1
9,SAHTLAAWFAKP (also called clone 204),1
10,TTHSELSGYVEL (also called clone 188),1
11,B2,1
12,HYFSRTQTLSTL (also called clone 194),1
13,TSYLNSGMIPAR (also called clone 63),1
14,VSHPPRFPGWPQ (also called clone 59),1
15,IPFATAAYNAPG (also called clone 191),1
16,AHPWRYTEPWSW (also called clone 101; clone 154),6
17,AAAPLNLSMTFP (also called clone 182),1

# Target: Secreted Protein, Acidic, Rich in Cysteines (SPARC) (UniProt P09486)
# Test: as above
row,Molecule,Count
1,HLPKSLS (peptide),1

# Target: T2, HTI SPARC (purified platelet SPARC obtained from HTI) (UniProt P09486 18-303)
# T2 sequence (looked up): T1 sequence (looked up)
# Test: Biacore, SPARC immobilised on the chip; R = refolded scFv
row,Molecule,Kd [nM]
1,B3,78000

# Target: T3, Abx SPARC (SPARC from engineered HEK293 cells produced by Abraxis) (UniProt P09486 18-303, limits assumed)
# T3 sequence (looked up): T1 sequence (looked up)
# Test: as above
row,Molecule,Kd [nM]
1,B3,1300

# Target: T1, Secreted Protein, Acidic, Rich in …
# Test: phage ELISA on SPARC-coated wells; OD column 3 of 3
# Source text: as §1
row,Molecule,OD
1,VPATRVSPTPYA (also called clone 133),0.5
2,VGNMPFVHPHQW (also called clone 192),0.539
3,QILGYPTNLGPF (also called clone 135),0.66
4,B1,0.438
5,TQWHDDSTFYWL (also called clone 186),0.882
6,KAYLDSIPITPR (also called clone 60),0.605
7,IDKPLHVVLALG (also called clone 184),0.554
8,LSTHKLFHSHSQ (also called clone 180),1.14
9,SAHTLAAWFAKP (also called clone 204),0.779
10,TTHSELSGYVEL (also called clone 188),0.685
11,B2,0.576
12,HYFSRTQTLSTL (also called clone 194),0.521
13,TSYLNSGMIPAR (also called clone 63),0.602
14,VSHPPRFPGWPQ (also called clone 59),0.733
15,IPFATAAYNAPG (also called clone 191),0.58
16,AAAPLNLSMTFP (also called clone 182),0.643

# Target: T1, Secreted Protein, Acidic, Rich in …
# Test: concentration-dependent ELISA on SPARC
Molecule,EC50 (read off the curve) [µg/mL],Kd [nM]
B1,~3,1
B2,~2,410

# Target: T1, Secreted Protein, Acidic, Rich in …
# Test: phage ELISA on SPARC-coated wells; OD column 2 of 3
# Source text: as §1
row,Molecule,OD
1,VPATRVSPTPYA (also called clone 133),0.554
2,VGNMPFVHPHQW (also called clone 192),0.5
3,QILGYPTNLGPF (also called clone 135),0.652
4,B1,0.443
5,TQWHDDSTFYWL (also called clone 186),0.985
6,KAYLDSIPITPR (also called clone 60),0.611
7,IDKPLHVVLALG (also called clone 184),0.635
8,LSTHKLFHSHSQ (also called clone 180),1.28
9,SAHTLAAWFAKP (also called clone 204),0.748
10,TTHSELSGYVEL (also called clone 188),0.682
11,B2,0.516
12,HYFSRTQTLSTL (also called clone 194),0.514
13,TSYLNSGMIPAR (also called clone 63),0.664
14,VSHPPRFPGWPQ (also called clone 59),0.628
15,IPFATAAYNAPG (also called clone 191),0.567
16,AAAPLNLSMTFP (also called clone 182),0.782

# Target: T1, Secreted Protein, Acidic, Rich in …
# Test: concentration-dependent binding ELISA
row,Molecule,Kd [nM]
1,B1,100
2,B2,41

# Target: T2, HTI SPARC (purified platelet SPARC …)
# Test: Biacore, SPARC immobilised on the chip; S = soluble scFv
row,Molecule,Kd [nM]
1,B4,330

# Target: T3, Abx SPARC (SPARC from engineered HEK293 …)
# Test: as above
row,Molecule,Kd [nM]
1,B4,370

# Target: T1, Secreted Protein, Acidic, Rich in …
# Test: phage ELISA on SPARC-coated wells; OD column 1 of 3
# Source text: as §1
row,Molecule,OD
1,VPATRVSPTPYA (also called clone 133),0.545
2,VGNMPFVHPHQW (also called clone 192),0.567
3,QILGYPTNLGPF (also called clone 135),0.626
4,B1,0.45
5,TQWHDDSTFYWL (also called clone 186),0.903
6,KAYLDSIPITPR (also called clone 60),0.619
7,IDKPLHVVLALG (also called clone 184),0.634
8,LSTHKLFHSHSQ (also called clone 180),1.21
9,SAHTLAAWFAKP (also called clone 204),0.8
10,TTHSELSGYVEL (also called clone 188),0.716
11,B2,0.597
12,HYFSRTQTLSTL (also called clone 194),0.494
13,TSYLNSGMIPAR (also called clone 63),0.688
14,VSHPPRFPGWPQ (also called clone 59),0.737
15,IPFATAAYNAPG (also called clone 191),0.564
16,AAAPLNLSMTFP (also called clone 182),0.756
